The data set can be described thus: yeast display, Sf9 membrane polyspecificity reagent, FACS + sequencing; frameworks hold sequencing errors. The essentials:
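After 36–48 hours of galactose induction, yeast (Saccharomyces cerevisiae BJ5465) displaying a synthetic nanobody library were stained at 4 °C for 1 hour with 10% biotinylated, detergent-solubilized Sf9 membrane reagent. Streptavidin microbeads enriched the stained cells before FACS sorting into low and high (top ~1%) gates on anti-HA and streptavidin fluorescence. Each clone's polyreactivity label reflects its gate of origin.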
For the sequence “QVQLVESGGGLVQAGGSLRLSCAASGLTFSVNAMGWYRQAPGKERELVAAINYGGGSTYYADSVKGRFTISRDNAKNTVYLQMNSLKPEDTAVYYCAAVPYPRGKGYDYWGQGTQVTVSS”, the “polyreactivity (PSR sort gate)” value is listed as “high polyreactivity”.
Then “QVQLVQSGGGLVQAGGSLRLSCAASGRIIGVNAMGWYRLAPGKERQLVADISSGRSTTYADSVKGRFTISRDNAKNTVYLQMNSLKPEDTALYYCNARFRFRYKFPSRHSWGQGSQVTVSS”, with “high polyreactivity”; and “QVQLQESGGGLVQAGGSLRLSCAATGSIYHLHIMCWYRKAPGKERESVAAISYGTSTYYADSVKGRFTICRDNAKNTVYLQMNSPKPDDTAVYYCAALFLVYKHHHYWGEGTQVTVSS”, with “low polyreactivity”.
The same measure for “QVQLVESGGGLVQAGGSLRLSCAASGSTFIYYAMVWYRQAPGKERELVASLSRSGGSTYYADSVKGRFTISRDNAKNTVYLQMNSLKPEDTAVYYCARAYRSSFNYWGQGTQVTVSS”: “high polyreactivity”.
Take “QVQLVESGGGLVQAGGSLRLSCAASGGIFVGYAMGWYRQAPGKERELVASIDGSDGSTFYADSVKGRFTISRDNAKNTVYLQMNSLKPVDTAVYYCNARATLLSPANTIRGYDYWGQGTQVTVSS”: the “polyreactivity (PSR sort gate)” value is on record as “low polyreactivity”.
The same measure for “QVHLVESGGGLVQAAGSLRLSCAASGRIFSYNAMGWYRPAPGKERELVAAISSDGSTYYADSVKGRFTISRDNAKNTVYLQMNSLKPEDTAVYYCAASQVVWFDYTTAQVGSYKVNYWGQGTQVSVSS”: “low polyreactivity”; for “QVQLVESGGGLVQARVSLRLSCAASGITFRYYAMGWYRQAPGKERELVAAITRGGGSTYYADSVKGRFTISRDNAKNTVYLQMNSLKPEDTAVYYCAAAGSRYAWGYGYWGQGTQVTVSS”: “high polyreactivity”.
The same measure for “QVQLVESGGGLVQAGGSLRLSCAASGFTFTWYAMGWYRQAPGKERELVASISRSGGSTYYADSVKGRFTISRDNAKNTVYLQMNSLKPEDTAVYYCAAVSRTRSYDYWGQGTQVTVSS”: “high polyreactivity”.
As for “QVQLVESGGGLVQAGGSLRLSCAASGSIFASYAMGWYRQAPGKERELVAAISWNGGSTYYADSVKGRFTISRDNAKNTVYFQMNSLKPEDTAVYYCAAVNRKSQLYGYWGQGTQVTVSS”, the “polyreactivity (PSR sort gate)” value is on record as “high polyreactivity”.
Then “QVQLVESGGGFVQAGGSLSLSCAASGRIFGINAMLWYRQAPGKVRELVAAISSSGANTYYADSVKGRFTISRDNAKNTVYLQMNRLKPEDTAVYYCATKASSYQSPYYYWGQGTQVTVSS”, with “high polyreactivity”.
With “QVHLVESAGGLVQAGGSLRLSCDASGRTFYPNAMGWYRQKHGQERELVAGIRSSGESTYYEDSVKGRFTISRDNAKTTVYLQMNSLKQEDTAVYYGIRDLTPSYDFWGQGSQVTVSS”, the “polyreactivity (PSR sort gate)” value was “low polyreactivity”.
Then “QVQLVESGGVLVQAGGSLRLSCAASGLTFDPNAMGWYRQAPGKERELVATITQTDGSTYYADSVKGRFTISRDNAKNTVYLQMNSLKPEDTAVYYCDGLVSRGSDYWGQGTQVTVSS”, with “low polyreactivity”.
Consider “QVQLVESGGGLVQAGGSLRLSCAASGIIFQRNDMGWYRQAPGKERELVANIRDGGITYADSVKGRFTISRDNAKNTVYLQMNSLKPEDTAVYYCARDDTSPGYCDQSSNAAYYYWGQGTQVTVSS”, for which the “polyreactivity (PSR sort gate)” value is listed as “low polyreactivity”.
Take “QVQLVESGGGLVQAGGSLRLSCAASGSTFSAYTMGWYRQAPGKERELVARITNGGSTYYADSVKGRFTISRDNAKNTVYLQMNSLKPEDTAVYYCNVQYYVSYWRSYDYWGQGTQVTVSS”: the “polyreactivity (PSR sort gate)” value is “high polyreactivity”.
Then “QVQLVESGGGLVQAGGSLRLSCADSGLTFGRNAMGWYRHAPGKERELVAAITFNGGSTYYADSVKGRFTISRDNAKNTVYLQMNSLKPEDTAVYYCSGRLWRRSRFDYWGQGTQVTVSS”, with “high polyreactivity”; and “QVQLVESGGGLVQAGGSLRLSCAASGSIFYANAMGWYRQAPGKERELVAAISRSGGRTYYADSVKGRFTISRDNSKNTVYLQMNSLKPEDTAVYYCAADTGRYRDSNYWGQGTQVTVSS”, with “high polyreactivity”.
The same measure for “QVQLQESGGGLVQAGGSLRLSCAASGYISQSSVMGWYRQAPGKEREFVASISYGATTYYADSVKGRFTISRDNAKNTVYLQTNSPKPEDTAVYYCAVWVKRGFSHRYWGQGTQVTVSS”: “high polyreactivity”.
On to “QVQLVESGGGLVQAGGSLRLSCAASGITFYYYAMGWYRQAPGKERELVASISSVGTTYYADSVKGRFTISGDNAKNTFYLEMNSLKPVDTAVYYCAAVDYVRYYPDEFDYWGQGTQVTVSS”, for which the “polyreactivity (PSR sort gate)” value is listed as “low polyreactivity”.
For “QDQLVESGGGLDQAGGSLRLSCAASGFTFYNYAMGWYRQAPGKERELVAAISWNGGSTYYADSVKGRFTISRDNAKNTVYLQMNSLKPEDTAVYYCNADISQRTRGYYYVWWSRMDYWGQGTQVTVSS”, the “polyreactivity (PSR sort gate)” value was “low polyreactivity”.
As for “QVQHVESGGGLVQAGGSLRLSCAASGRTTYTNARGWYRQAPGKERELVASISWRGGSSYYADSVKGRFTISRDNAKNTVYLQMNSLIPEDTAVYYCAASWPRWWRFGYWGQGTQVTVSS”, the “polyreactivity (PSR sort gate)” value is recorded as “low polyreactivity”.
With “QVQLVESGGALVQAGGSLRLSCAASGSTFLNYAMRGYRQATGKARELVAGINSGGSTNYADSVKGRFTISRDNAKNTVYLQMNSLKPEDTAVYYCAGDRVGNEYDYWGQGTQVTVSS”, the “polyreactivity (PSR sort gate)” value is “low polyreactivity”.
The same measure for “QVQLVESGGGLVQAGGSLRLSCAASGRTFSAYAMGWYRQAPGKERELVATISRSGGRTYYADSVKGRFTISRDNAKNTVYLQMNSLKPEDTAVYYCNARILRDNQGTYDYWGQGTQVTVSS”: “high polyreactivity”; for “HVQLVESGGGLVQAGGSLRLSCAASGFIFVFYDMGWYRPAPGKERELVAGITRNDGSTYYADSVKGRFKISRDNAKNTVYLQMNSLKPEDTAVYYCAADRVRRNDKLAYDYWGQGTQVTVSS”: “low polyreactivity”.
Then “QVELVESGGGLVQAGGSLRLSCAASGLTFVSYAMGWYRQAPGKERELVAAISRSGGSTYYADSVKGRFTISLDNAKNTVYLQMNSLKPEDTAVYYCNAYSYVEFWAVYRYDYWGQGTQVTVSS”, with “high polyreactivity”; and “QDQLVESGGRLVQAGGSLRLSCAASGRTFYYYAMGWYRQAPGKERELVARIRSGGSTNYADSVKGRFTISRDNAKNSVYLQMNSLKPEDTAVYYCNALGAKGYVKGFDYWGQGTQVTVSS”, with “low polyreactivity”; and “QVQLVESGGGLVQAGGSLRLSCAASGITFYGKAMGWYREAPGKERELGAAITGGGGTNYADSVKGRFTISRDNAKKTVYLQMTSLKPEDTAVYYCNRDYFVWFQRGQYKRGSSWYDNWGQGTQVTVSS”, with “low polyreactivity”.
The same measure for “QVQLVESGGGLVQAGGSLRLSCAASGSTFTYNDMGWYRPAPGKERELVATIDSTTRTYYADSVKGRFTISRDNAKNSVYLQMNCLKPEDTAVYYCAADLTWAYFYYLFYRYDYWGQGTKVTVSS”: “low polyreactivity”.
Consider “QVQLVESGGGLVQAGGSLRLSCAASGRIFGKYVMGWYRQAPGKERELVAAISRSGGSTSYADSVKGRFTISRDNAKNTVYLQMNSLKPEDTAVYYCAASPAGYLAPRGYYWGQGTQVTVSS”, for which the “polyreactivity (PSR sort gate)” value is “high polyreactivity”.
As to “QVQLVESGGGLVQAGGSLRLSCAASGRTFYYYAMGWYRQAPGNERELVAAISRGGGTNYADSVKGRFTISRDNAKNTVYLQMNSLKPEDTAVYYCAAARIGPQRYDYWGHGTQVTVSS”, the “polyreactivity (PSR sort gate)” value is “high polyreactivity”.
Then “QVQLVESGGGLDQAGGSLRLSCAASGNTFIRNALGWYRQAPGIERELVAAITSGTSTYYADSVKGRFTISRDNAQKTVYLQMNSLKPEDTALYYCAKRRNYWHYYWGQGTQVTVSS”, with “high polyreactivity”.

For the origin of these results see the nanobody polyreactivity screen of Harvey et al. (2022).
